According to the supplement of paper PMC10567573:

B1: NCF4 (parent)
chain: FVKILKDFPEEDDPTNWLRCYYYE

Variants of: B1
Assay: protein stability index of a GFP-peptide fusion (GPS, HEK-293T) (PSI 1-6); higher = more stable
Details: c terminus: a fixed tail appended
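Note: lentivirally expressed fusions sorted by FACS into six bins by GFP to DsRed ratio, PSI derived from sequencing read proportions per bin multiplied by bin number.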

Protein stability index, by site and new letter:
C20: D 1.79 | N 2.74 | K 2.32 | Y 1.9 | G 2.06 | Q 2.03 | L 1.69 | V 1.72 | M 2.02 | S 1.96 | E 2.12 | F 2.03 | A 1.58 | P 1.23 | W 1.5 | T 2.38 | R 2.12 | H 1.84
Y21: A 1.1 | Q 1.93 | S 1.8 | H 2.55 | D 2.02 | I 2.44 | C 1.61 | M 1.75 | L 2.62 | K 2.47 | G 1.06 | R 1.9 | F 1.91 | N 3.57 | W 1.89 | V 2.53 | E 1.41
L18: C 1.58 | Q 1.73 | H 1.66 | P 2.42 | E 2.13 | A 2.1 | G 1.92 | S 2.15 | D 1.94 | V 2.34 | K 1.55 | R 1.9 | Y 1.96 | M 1.72 | T 2.24 | N 1.86
R19: Q 1.42 | M 2.31 | E 1.56 | S 1.79 | C 1.01 | V 1.74 | K 4.32 | N 2.83 | G 1.09 | W 1.78 | H 3.89 | T 2.28 | I 1.84 | L 1.78 | P 2.54 | F 2.28 | A 2.27 | Y 3.01 | D 2.32
P14: D 2.76 | K 1.9 | T 1.11 | H 3.08 | V 1.84 | F 1.24 | W 2.21 | E 3.08 | G 2.52 | A 2.72 | Q 1.47 | Y 1.3 | C 1.19 | R 3.25 | S 2.5 | I 1.15 | M 1.72
T15: E 2.85 | A 2.18 | F 1.79 | K 1.93 | W 1.41 | D 1.79 | P 2.88 | H 1.3 | R 3.22 | M 2.32 | I 1.44 | G 1.66 | L 2.27 | C 1.88 | N 2.03 | S 2.14 | Y 1.84 | V 1.9 | Q 2.02
N16: S 1.53 | V 1.82 | C 3.04 | I 1.75 | A 1.61 | Y 2.46 | H 5.27 | L 1.64 | F 2.41 | G 1.61 | T 2.25 | E 2.71 | Q 2.05 | W 1.58 | R 1.47 | M 2.61 | P 2.55 | D 1.7 | K 1.81
D13: T 2.72 | W 3.15 | H 2.54 | I 1.29 | R 1.66 | Q 2.12 | P 1.4 | M 3.83 | V 1.53 | Y 2.81 | S 2.46
Y22: L 2.24 | H 1.82 | K 1.61 | A 3.02 | E 2.1 | M 2.33 | G 2.64 | F 1.65 | C 1.92 | I 1.75 | N 1.56 | D 2.29
W17: A 1.93 | E 1.91 | M 1.85 | T 1.85 | Y 2.4 | N 3.07 | G 1.79 | V 1.31 | H 2.34 | L 1.74 | D 1.91 | C 2.55 | S 1.52 | P 1.54 | Q 1.89 | K 1.93 | F 1.59 | I 1.84 | R 1.52
